Source: patent US20090155271A1 (ZymoGenetics, published 2009)
Where “and” joins values, the source holds several entries; their conditions need not be identical. Identical values can stand only once.

B1: human IL-17F (ligand)
chain: RKIPKVGHTFFQKPESCPPVPGGSMKLDIGIINENQRVSMSRNIESRSTSPWNYTVTWDPNRYPSEVVQAQCRNLGCINAQGKEDISMNSVPIQQETLVVRRKHQGCSVSFQLEKVLVTVGCTCVTPVIHHVQ
notes: also called hIL-17F; huIL-17F

How the values were obtained:
[1] = biological target: T1, human IL-17RC, x1 splice variant, on transfected cells (human, UniProt Q8NAC3 21-791); assay: 100x molar cold competitor, 125I IL-17A on BHK hIL-17RC cells
T1 construct: Full-length receptor on BHK, 293F or NIH3T3 transfectants; also called hIL-17RC; hIL-17RC (x1)
T1 sequence: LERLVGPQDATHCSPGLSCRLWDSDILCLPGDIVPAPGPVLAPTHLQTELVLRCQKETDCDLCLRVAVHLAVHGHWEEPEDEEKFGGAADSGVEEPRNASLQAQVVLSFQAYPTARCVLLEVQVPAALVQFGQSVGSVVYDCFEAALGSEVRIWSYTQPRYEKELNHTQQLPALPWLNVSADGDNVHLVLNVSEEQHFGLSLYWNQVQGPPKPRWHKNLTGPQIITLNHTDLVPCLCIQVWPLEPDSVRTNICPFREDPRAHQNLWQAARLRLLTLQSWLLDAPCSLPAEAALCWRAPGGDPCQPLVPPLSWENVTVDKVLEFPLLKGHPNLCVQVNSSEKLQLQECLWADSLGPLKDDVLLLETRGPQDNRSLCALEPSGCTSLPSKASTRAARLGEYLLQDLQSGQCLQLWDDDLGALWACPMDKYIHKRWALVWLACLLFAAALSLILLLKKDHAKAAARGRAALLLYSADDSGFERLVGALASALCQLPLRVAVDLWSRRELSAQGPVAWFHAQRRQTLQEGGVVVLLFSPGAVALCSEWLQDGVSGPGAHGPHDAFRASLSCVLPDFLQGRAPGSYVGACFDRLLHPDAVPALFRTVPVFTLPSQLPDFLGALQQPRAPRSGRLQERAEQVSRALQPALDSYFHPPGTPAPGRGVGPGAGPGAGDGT
Protocol: (§1) Cold competitors were added in 100 fold molar excess. […] Wells were incubated on ice for 1-hour followed by two washes with PBS (Invitrogen 20012-027) and one wash with a high salt solution (1.5M NaCL, 50 mM HEPES pH 7.4). Wells were extracted with 500 ul of 0.8M NaOH for 30 min. at room temperature and counts per minute were measured in a gamma counter (Packard Cobra II A5005).

[2] = biological target: T1, human IL-17RC, x1 splice variant, on …; assay: 100x molar cold competitor, 125I IL-17F on BHK hIL-17RC cells
Protocol: as §1

[3] = biological target: T1, human IL-17RC, x1 splice variant, on …; assay: cell-based or functional assay
[4] = biological target: T2, human IL-17RA on transfected cells (human, UniProt Q96F46 33-320); assay: cell-based or functional assay
T2 sequence: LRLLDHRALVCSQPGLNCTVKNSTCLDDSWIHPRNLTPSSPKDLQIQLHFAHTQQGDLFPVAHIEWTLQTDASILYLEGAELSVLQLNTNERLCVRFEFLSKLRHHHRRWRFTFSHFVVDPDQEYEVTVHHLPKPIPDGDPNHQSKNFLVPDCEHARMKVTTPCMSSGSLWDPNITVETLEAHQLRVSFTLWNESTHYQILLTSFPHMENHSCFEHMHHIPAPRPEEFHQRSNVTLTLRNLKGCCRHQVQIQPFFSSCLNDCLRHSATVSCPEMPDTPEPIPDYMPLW

[5] = biological target: B1; assay: cell-based or functional assay
[6] = biological target: T3, human IL-17A (human, UniProt Q16552 24-155); assay: cell-based or functional assay
T3 sequence: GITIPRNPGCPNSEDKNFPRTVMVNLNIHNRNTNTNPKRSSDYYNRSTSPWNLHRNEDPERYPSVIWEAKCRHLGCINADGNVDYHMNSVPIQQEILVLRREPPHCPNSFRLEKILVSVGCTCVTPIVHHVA

[7] = biological target: B1; assay: Biacore, receptor captured by anti-human IgG-Fc on CM5, ligand series
Excerpt: (§2) The protocol was optimized to capture receptor at a theoretical binding max. before injecting a concentration series of each ligand to observe association and dissociation. […] The surface was regenerated with 2×30 sec. injections of pH 1.75 glycine between cycles.

[8] = biological target: T3, human IL-17A; assay: as above
Excerpt: as §2

[9] = biological target: B1; assay: cell-based or functional assay; remark: listed apart in the source
[10] = biological target: T3, human IL-17A; assay: cell-based or functional assay; remark: listed apart in the source
[11] = biological target: B1; assay: Biacore, rounded summary of Table 10
Excerpt: as §2

[12] = biological target: T3, human IL-17A; assay: Biacore, rounded summary of Table 10
Excerpt: as §2

For B1, the “fold reduction of 125I IL-17A binding” value [1] was ~7 fold, the “fold reduction of 125I IL-17F binding” value [2] was ~5 fold and the “EC50, ap1/nfkb luciferase in nih3t3/kz142.8/hcytor14X1 cells” value [3] was 0.00061 µg/mL. For the same binder, the “EC50, ap1/nfkb luciferase in nih3t3/kz142.8/IL-17R cells” value [4] was 0.0124 µg/mL.

B2: mouse IL-17A (ligand)
chain: AAIIPQSSACPNTEAKDFLQNVKVNLKVFNSLGAKVSSRRPSDYLNRSTSPWTLHRNEDPDRYPSVIWEAQCRHQRCVNAEGKLDHHMNSVLIQQEILVLKREPESCPFTFRVEKMLVGVGCTCVASIVRQAA
With B2 the “EC50, ap1/nfkb luciferase in nih3t3/kz142.8/hcytor14x1 cells” value [3] was ~0.004 µg/mL.

B3: Variant 1454 (exons 1-6 of human IL-17RA and 8-16 of human IL-17RCx1, fused to Fc5) (Fc fusion)
chain: SLRLLDHRALVCSQPGLNCTVKNSTCLDDSWIHPRNLTPSSPKDLQIQLHFAHTQQGDLFPVAHIEWTLQTDASILYLEGAELSVLQLNTNERLCVRFEFLSKLRHHHRRWRFTFSHFVVDPDQEYEVTVHHLPKPIPDGDPNHQSKNFLVPDCEHARMKVTTPCMSSALPWLNVSADGDNVHLVLNVSEEQHFGLSLYWNQVQGPPKPRWHKNLTGPQIITLNHTDLVPCLCIQVWPLEPDSVRTNICPFREDPRAHQNLWQAARLRLLTLQSWLLDAPCSLPAEAALCWRAPGGDPCQPLVPPLSWENVTVDKVLEFPLLKGHPNLCVQVNSSEKLQLQECLWADSLGPLKDDVLLLETRGPQDNRSLCALEPSGCTSLPSKASTRAARLGEYLLQDLQSGQCLQLWDDDLGALWACPMDKYIHKEPKSSDKTHTCPPCPAPEAEGAPSVFLFPPKPKDTLMISRTPEVTCVVVDVSHEDPEVKFNWYVDGVEVHNAKTKPREEQYNSTYRVVSVLTVLHQDWLNGKEYKCKVSNKALPSSIEKTISKAKGQPREPQVYTLPPSRDELTKNQVSLTCLVKGFYPSDIAVEWESNGQPENNYKTTPPVLDSDGSFFLYSKLTVDKSRWQQGNVFSCSVMHEALHNHYTQKSLSLSPGK
notes: also called IL17RA/RC 1454; soluble IL-17RC/IL-17RA polypeptide
For B3, the “IC50, huIL-17F(50 ng/ml) induction of G-CSF in SAEC” value [5] was 1.2 µg/mL, the “IC50, huIL-17F(50 ng/ml) induction of IL-8 in SAEC” value [5] was 0.57 µg/mL and the “IC50, huIL-17A(10 ng/ml) induction of G-CSF in SAEC” value [6] was 0.14 µg/mL. The “IC50, huIL-17A(10 ng/ml) induction of IL-8 in SAEC” value [6] was 0.03 µg/mL, the Kd [7] was 0.143 nM and 0.126 nM and the koff [7] was 0.000261 s⁻¹ and 0.000315 s⁻¹. For the same binder, the kon [7] was 1.82e+06 M⁻¹ s⁻¹ and 2.49e+06 M⁻¹ s⁻¹, the Kd [8] was 0.0439 nM and 0.0382 nM and the koff [8] was 6.22e-05 s⁻¹ and 9.95e-05 s⁻¹. For the same binder, the kon [8] was 1.42e+06 M⁻¹ s⁻¹ and 2.61e+06 M⁻¹ s⁻¹, the “IC50, luciferase activation of hIL-17RA/NIH3T3/KZ142.8 cells by 20 ng/ml IL-17F” value [9] was 0.48 µg/mL and the “IC50, luciferase activation of hIL-17RCX4/NIH3T3/KZ142.8 cells by 1 ng/ml IL-17F” value [9] was 0.8 µg/mL. The “IC50, luciferase activation of hIL-17RA/NIH3T3/KZ142.8 cells by 0.5 ng/ml IL-17A” value [10] was 0.007 µg/mL, the Kd [11] was ~0.14 nM and the Kd [12] was ~0.04 nM.
